Data: patent US20180064758A1

How the values were obtained:
[1] = biological target: Recombinant soluble CD19 ectodomain (made in 293T cells) (UniProt P15391); test: flow cytometry of transduced primary human T-cells stained with anti-CD3 and, for CAR, with recombinant CD19. Other quadrants: 74.7 upper left, 1.86 lower left, 0.16 lower right. The non-transduced control has 0.27 in the upper right
[2] = biological target: CD19 (partner in the 'Cellular affinity' column); test: column 'Cellular affinity' of the drawn table; unit not given, the assay is not described in the filing and the format of the construct is not stated
[3] = biological target: Recombinant soluble CD19 ectodomain (made in 293T cells) (UniProt P15391); test: flow cytometry of transduced primary human T-cells stained with anti-CD3 and, for CAR, with recombinant CD19. Other quadrants: 67.5 upper left, 1.43 lower left, 0.24 lower right. The non-transduced control has 0.27 in the upper right

Sequence of UniProt P15391 (P15391 20-291 limits assumed): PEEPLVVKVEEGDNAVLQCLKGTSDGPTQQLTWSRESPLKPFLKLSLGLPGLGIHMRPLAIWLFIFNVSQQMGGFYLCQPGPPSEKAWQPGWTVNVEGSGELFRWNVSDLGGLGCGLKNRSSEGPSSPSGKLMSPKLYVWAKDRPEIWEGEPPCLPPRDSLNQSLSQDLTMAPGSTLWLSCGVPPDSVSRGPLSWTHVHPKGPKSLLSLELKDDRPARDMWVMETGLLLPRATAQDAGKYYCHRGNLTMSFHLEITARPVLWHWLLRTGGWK

| Cellular affinity [2] | Substance | other results |
| --- | --- | --- |
|  | 4G7 CAR in the Campana format (CD8 stalk spacer and transmembrane domain, 41BB endodomain, CD3-Zeta endodomain), on primary human T-cells | % of cells in the CD3+ CAR+ quadrant (upper right) [1]: 23.3% |
| 1e-09 | 4G7 scFv-Fc (soluble recombinant scFv in scFv-Fc format, made in 293T cells) (Fc fusion) |  |
| 2e-10 | Fmc63 scFv-Fc (soluble recombinant scFv in scFv-Fc format, made in 293T cells) (Fc fusion) |  |
|  | fmc63 CAR in the Campana format (CD8 stalk spacer and transmembrane domain, 41BB endodomain, CD3-Zeta endodomain), on primary human T-cells | % of cells in the CD3+ CAR+ quadrant (upper right) [3]: 30.8% |
